For one assay, the target named is T1, GST-MPK3 (Arabidopsis, UniProt Q39023 1-370).
T1 construct: MPK3, Arabidopsis, full length, in PGEX5X-1; also called GST-tagged MPK3
T1 sequence (looked up): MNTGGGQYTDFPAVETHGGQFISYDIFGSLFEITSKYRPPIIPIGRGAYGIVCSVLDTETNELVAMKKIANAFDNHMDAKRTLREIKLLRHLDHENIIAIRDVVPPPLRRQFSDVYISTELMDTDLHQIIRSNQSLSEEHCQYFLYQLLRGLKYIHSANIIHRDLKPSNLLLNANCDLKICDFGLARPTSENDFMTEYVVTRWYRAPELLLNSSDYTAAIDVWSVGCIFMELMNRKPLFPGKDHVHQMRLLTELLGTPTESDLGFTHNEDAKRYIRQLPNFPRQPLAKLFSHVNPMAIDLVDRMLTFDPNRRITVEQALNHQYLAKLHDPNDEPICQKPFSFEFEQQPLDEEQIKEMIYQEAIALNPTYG
Put plainly: pull-down; GST or GST-MPK3/MPK6 immobilised on glutathione beads, 4 μg His-tagged ABI4, 4 °C for 4 h; washed with 50 mM Tris-HCl pH 7.4, 100 mM NaCl, 1 mM EDTA, 0.5% Nonidet P-40; anti-His immunoblot. As to conditions: both partners purified. A general note: Immunoblotting shows a protein as a band on a membrane.

Another assay addresses T2, GST-MPK6 (Arabidopsis, UniProt Q39026 1-395).
T2 construct: MPK6, Arabidopsis, full length, in PGEX5X-1; also called GST-tagged MPK6
Described as above. As to conditions: both partners purified.

T2 sequence (Q39026 whole entry): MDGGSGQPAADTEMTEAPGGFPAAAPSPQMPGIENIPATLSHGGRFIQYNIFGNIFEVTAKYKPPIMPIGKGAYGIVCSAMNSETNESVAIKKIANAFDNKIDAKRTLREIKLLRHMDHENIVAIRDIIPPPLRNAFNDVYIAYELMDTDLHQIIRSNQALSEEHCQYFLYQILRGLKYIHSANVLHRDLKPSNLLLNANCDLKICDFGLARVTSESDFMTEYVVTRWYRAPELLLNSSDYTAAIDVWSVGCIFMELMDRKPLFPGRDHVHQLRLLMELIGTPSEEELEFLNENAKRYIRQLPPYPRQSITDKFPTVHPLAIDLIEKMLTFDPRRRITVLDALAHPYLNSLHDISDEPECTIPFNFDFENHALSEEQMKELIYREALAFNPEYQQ

B1: His-tagged ABI4 (natural protein)
chain: not shown
notes: ABI4, Arabidopsis; the ABI4 cDNA was inserted into the pCold vector; The pull-down methods name only 'recombinant His-tagged ABI4 protein'; also called recombinant ABI4
For B1, the binding result with GST-MPK3 and with GST-MPK6 was “binds” in each case.

Source of the values: paper PMC4942575, “Plastid-nucleus communication involves calcium-modulated MAPK signalling” (Nature Communications, 2016).
